Reference: patent US20260258115A1 (MAPP BIOPHARMACEUTICAL, published 2026)

Assays:
Experiment in all cases: BLI, IgG
[1] = target: T1, RSV postfusion F (postF), subtype A (respiratory syncytial virus, subtype A, UniProt P03420 26-513)
T1 construct: also called F ΔFP; Postfusion subtype A

[2] = target: RSV prefusion F (preF), subtype A (respiratory syncytial virus, subtype A, UniProt P03420 26-513)
[3] = target: RSV prefusion F (preF), subtype B (respiratory syncytial virus, subtype B)

B1: ADI-20977 (antibody, V domains shown)
VH: EVQLVESGGGLVQPGGSLRLSCAASGFTFTNYAMSWVRQAPGKGLEWVSGISGSGGSTYYADSVKGRFTISRDNSKNTLYLQMNSLRAEDTAVYYCAKDQGYAVVVADATRNLPPRRYGMDVWGQGTTVTVSS
VL: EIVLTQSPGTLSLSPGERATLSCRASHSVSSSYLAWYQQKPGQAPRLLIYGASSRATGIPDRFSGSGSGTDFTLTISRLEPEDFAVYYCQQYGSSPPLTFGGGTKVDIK
notes: also called Ab 230
Question: What does the source list for B1?
Answer: binding result [1]: no binding; Kd [2]: 0.151 nM

B2: ADI-14414 (antibody, V domains shown)
VH: QVQLVQSGAEVKKPGSSMKVSCKASGGSFSSYGISWLRQAPGQAPEWMGGIIPIFGTINYAQKFQGRITISADESTSTVYMELSSLRIEDTAVYYCARDGRTSPRYYGWDVWGQGTTVTVSS
VL: DIRLTQSPATLSLSPGDRATLSCRASQSLYTYLSWYQQKPGQAPRLLIYDASNRATGIPARFSGSGSGTDFTLTISSLEPEDFAVYYCHYRSNWPPCTFGGGTKVDIK
notes: also called Ab 80
Question: Which results are given for B2?
Answer: Kd [3]: 3.07 nM; binding result [1]: no binding; Kd [2]: 5 nM

B3: ADI-14401 (antibody, V domains shown)
VH: QVQLVQSGGGLVKPGGSLRLSCAASGFTFSSYSMHWVRQAPGKGLEWVSSISASSSYLNYADSVKGRFTISRDNAKKSLYLQLNTLRADDTAVYYCAREDHDSGTYYLNWFDPWGQGTLVTVSS
VL: QSVVTQPPSVSGAPGQRVTISCTGSSSNIGAGYDVHWYQQFPGTGPKLLIYGNSHRPSGVPDRFSGSKSGPSASLAITGLQAEDEADYYCQSYDSSLSGYVFGTGTKVTVL
notes: also called Ab 67
Question: B3 was tested. Which Kd [3] did it give?
Answer: Its Kd is 2.17 nM.

Question: Does B3 bind [1]?
Answer: Result: no binding

Question: And the Kd [2]?
Answer: Its Kd is 1.19 nM.

B4: ADI-14400 (antibody, V domains shown)
VH: QVQLVQSGGGVVQPGRSLRLSSAASGFTFSSYAMHWVRQAPGKGLEWVAVISHDGSKYYADSVKGRFTISRDNSKSTLNLQMNSLRPEDTAVYYCARGGDVRLYDDSNGYHYDTYYFDYWGQGTLVTVSS
VL: EIVLTQSPSSLSASVGDRVTITCRASQGIRNDLGWYQQKPGKAPKLLIYAASTLQSGVPSRFSGSGSGTDFTLTISSLQPEDFATYYCLQDYNYPLTFGGGTKVEIK
notes: also called Ab 66
Question: Which results are given for B4?
Answer: Kd [3]: 0.451 nM; binding result [1]: no binding; Kd [2]: 0.29 nM

B5: ADI-14396 (antibody, V domains shown)
VH: EVQLVESGGGVVQPGRSLRLSCAASGFTFSSYAMHWVRQAPGKGLEWVAVISYDGSNKYYADSVKGRFTISRDNSKNTLYLQMNSLRAEDTAVYYCARELRYFDWEYGGMDVWGQGTTVTVSS
VL: EIVLTQSPSSLSASVGDRVTITCQASQDISNYLNWYQQKPGKAPKLLIYDASNLETGVPSRFSGSGSGTDFTFTISSLQPEDIATYYCQQYDNLPMYTFGQGTKLEIK
notes: also called Ab 63
Question: B5 was tested. Which Kd [3] did it give?
Answer: Its Kd is 15.5 nM.

Question: Does B5 bind [1]?
Answer: Result: no binding

Question: Does B5 bind [2]?
Answer: Result: no binding

B6: ADI-14409 (antibody, V domains shown)
VH: QVQLVQSGGEVKKPGASVKVSCKASGYTFTYYGISWVRQAPGQGLEWMGWISAYNGNTNYEQKFQGRVTMTTDTSTGTAYMELRSLTSDDTAVYYCARDRIVVVTAANYYGLDVWGQGTTVTVSS
VL: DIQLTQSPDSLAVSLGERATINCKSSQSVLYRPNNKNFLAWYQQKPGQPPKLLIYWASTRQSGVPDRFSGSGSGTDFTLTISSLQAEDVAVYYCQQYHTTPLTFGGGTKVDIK
notes: also called Ab 75
Question: How did the Kd [3] turn out when B6 was run?
Answer: The Kd was 0.289 nM.

Question: Does B6 bind [1]?
Answer: Result: no binding

Question: What about the Kd [2] of the same binder?
Answer: Its Kd is 0.15 nM.

B7: ADI-14572 (antibody, V domains shown)
VH: QVQLVQSGGGLVKPGGSLRLSCAASGFTFSNAWISWVRQAPGKGLEWVGRIKSATDGGTTDYAAPVKGRFTISRDDSKNTLYLQMDSLKTEDTAVYYCTTSYPYFDWLPFSVDYWGQGTLVTVSS
VL: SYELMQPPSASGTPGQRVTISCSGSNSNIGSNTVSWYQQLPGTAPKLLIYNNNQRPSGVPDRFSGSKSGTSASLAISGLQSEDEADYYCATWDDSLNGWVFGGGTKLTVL
Question: B7 was tested. Which Kd [1] did it give?
Answer: The Kd was 17 nM.

Question: Does B7 bind [2]?
Answer: Result: no binding

B8: ADI-21010 (antibody, V domains shown)
VH: EVQLVESGGGVVQPGRSLRLSCAASGFSFSTYGMHWVRQAPGKGLEWVGVIWYDETTKYYADSVKGRFSISRDNSKNMVYVQMNSLRADDTALYYCAREVWGGVFDIWGQGTTVTVSS
VL: DIQMTQSPATLSASVGDRVTITCRASQNIVTWLAWYQQKPGKAPNLLIYKASSLESGVPSRFSGSGSGTEFTLTISSLQPDDFATYYCQHYNSYSGAFGQGTKVDIK
Question: Does B8 bind [1]?
Answer: Result: no binding

Question: What about the Kd [2] of the same binder?
Answer: The Kd was 3.58 nM.

B9: ADI-14419 (antibody, V domains shown)
VH: EVQLVESGGGVVQPGGSLRLSCAASGFSFSDYGMHWVRQAPGKGLEWVSFIRYDASYKFYADSVKGRFTISRDNAKNTLYLQINSLRAEDTAVYYCAKEIYGSGSYYYYYYAIDVWGQGTTVTVSS
VL: EIVLTQSPGTLSLSPGERATLSCRASQSVSSSHLAWYQQKPGQAPRLLIYGASSRATGIPDRFSGSGSGTDFTLTISRLEPEDFAVYYCQQYFRSAWAFGQGTKVDIK
notes: also called Ab 85
Question: Does B9 bind [1]?
Answer: Result: no binding

Question: And the Kd [2]?
Answer: Its Kd is 2.69 nM.

B10: ADI-14576 (antibody, V domains shown)
VH: QVQLVQSGAEVKKPGASVKVSCKASGYTFTSYGISWVRQAPGQGLEWMGWISAYNGNTNYAQKLQGRVTMTTDTSTSTAYMELRSLRSDDTAVYYCARDPPVIAAGDFQHWGQGTLVTVSS
VL: DIVLTQSPLSLPVTLGQPASISCRSSQSLVHSDGNTYLNWFQQRPGQSPRRLIYKVSNRDSGVPDRFSGSGSGTDFTLKISRVEAEDVGVYYCMQGTHWPPDFGQGTRLEIK
Question: Which Kd [3] does the source give for B10 here?
Answer: Its Kd is 19.3 nM.

Question: Does B10 bind [1]?
Answer: Result: no binding

Question: And the Kd [2]?
Answer: Its Kd is 6.97 nM.

B11: ADI-21041 (antibody, V domains shown)
VH: EVQLVESGGVVVQPGGSLRLSCAASGFTFDDYTMHWVRQAPGKGLEWVSLISWVGDTTYYADSVKGRFTISRDNSKNSLYLQMNSLRTEDTALYYCAKGGYYDGSGYYYFDYWGQGTLVTVSS
VL: DIRLTQSPSSLSASVGDRVTITCRASQSISNYLNWYQQKPGKAPKLLMYAASSLQSGVPSRFSGSGSGTDFTLTISSLQPEDFATYSCQQSYSTPYTFGQGTKVEIK
Question: Does B11 bind [1]?
Answer: Result: no binding

Question: What about the Kd [2] of the same binder?
Answer: Its Kd is 7.3 nM.

B12: ADI-14571 (antibody, V domains shown)
VH: QVQLVQSGAEVKKPGSSVKVSCKASGGTFSTYTITWVRQAPGQGLEWMGRIVPIFGVVNNAQKFLGRLTITADKSTSTAYMELSSLRSEDTAVYYCARIPCSGNCQDYYYGMDVWGQGTTVTVSS
VL: DIQLTQSPSFLSASVGDRVTITCRASQGISSYLVWYQQKPGKAPKLLIYAASTLQSGVPSRFSGSGSGTEFTLTISSLQPEDFATYYCQQLNNYPPTFGPGTKVDIK
Question: Does B12 bind [1]?
Answer: Result: no binding

Question: What about the Kd [2] of the same binder?
Answer: Its Kd is 2.91 nM.

B13: ADI-14410 (antibody, V domains shown)
VH: QVQLQQWGAGLLKPSETLSLTCAIYSGSFSGYYWSWIRQPPGKGLEWIGQINYSGSAYYTPSLKSRVTISVDTSKNQFSLKLSSVTAADTAVYYCARVRITMVQGAIVPCAIDVWGQGTTVTVSS
VL: SYELTQPPSASGTPGQRVTISCSGSSSNIESNFVYWYQQLPGTAPKLLIHRNDQRPSGVPDRFSGSKSGTSASLAISGLRSEDEADYSCAAWDDSLSGVVFGGGTKVTVL
notes: also called Ab 76
Question: For B13, which Kd [3] is on record?
Answer: The Kd was 17.1 nM.

Question: Does B13 bind [1]?
Answer: Result: no binding

Question: And the Kd [2]?
Answer: The Kd was 3.77 nM.

B14: ADI-14413 (antibody, V domains shown)
VH: EVQLVESGGVVVQPGGSLRLSCAASGFNFDDYSMHWVRQAPGKGLEWVSVISWDGGITYYADSVKGRFTMSRDNGKKSLYLQMNSLRTEDTAVYYCGKDGDIYSSSSAGIDYWGQGTLVTVSS
VL: SYVLTQPPSASGTPGQRVIISCSGSSSNIGSHTVKWYQQLPGTAPKLLIDRNNQRPSGVPDRFSGPKSGTSASLAISGLQSEDEADYYCASWDDSLNGPVFGGGTQLTVL
notes: also called Ab 79
Question: With B14 as the binder, how does the Kd [3] read?
Answer: Its Kd is 2.71 nM.

Question: Does B14 bind [1]?
Answer: Result: no binding

Question: And the Kd [2]?
Answer: Its Kd is 5.45 nM.

B15: ADI-14408 (antibody, V domains shown)
VH: QVQLVQSGPALVKTTQTLTLTCTFSGFSLTTSGMCVSWIRQPPGKALEWLARIDWDDDKYYSTSLKTRLTISKDTSKNQVVLTLTNVDPVDTATYYCARMQKYDSSGYYLHYFDSWGQGTLVTVSS
VL: DIRLTQSPSSLSASVGDRVTIACRASQSISSYLNWYQQKPGKSPKVLIYAASILQTGVPSRFSGSGSGTDFTLTISSLQPEDFATYYCQQSYSINQYTFGQGTKVEIK
notes: also called Ab 74
Question: B15 was tested. Which Kd [3] did it give?
Answer: Its Kd is 12.8 nM.

Question: And the Kd [1]?
Answer: Its Kd is 2.14 nM.

Question: And the Kd [2]?
Answer: Its Kd is 8.53 nM.

B16: ADI-21006 (antibody, V domains shown)
VH: QVTLKESGPTLVKPTQTLTLTCTFSGFSLSISGVGVGWIRQPPGKALEWLAVMYWDDDKRYSPSLKTRLTITKDTSKNQVVLTMTNMAPVDTAIYYCAHLWFGEAAFDPWGQGTLVTVSS
VL: EIVLTQSPLSLPVTLRQTASISCRSGQSLLYSDGNTYLNWFQQRPGQSPRRLISIVSKRDSGVPDRFSGSGSGTDFTLKISRVEAEDVGVYYCMQGTHWPYTFGQGTKVEIK
Question: Does B16 bind [1]?
Answer: Result: no binding

Question: What about the Kd [2] of the same binder?
Answer: The Kd was 10.4 nM.

B17: ADI-14399 (antibody, V domains shown)
VH: EVQLLESGPGLVKPSQTLSLTCAVSGGSINSGRYSWSWIRQPPGKGLEWIGYIYYSGTTYYNPSLESRVTISRDTSKNQFSLNLSSVTAADTAVYYCARTNSADSYASGSHYIRPQYFDFWGQGTLVTVSS
VL: DIQLTQSPATLSLSPGERATLSCRASQSVSSYLAWYQQKPGQAPRLLIYGASNRATGIPARFSGSGSGTDFTLTISRLEPEDFAVYYCQQRSNWLTFGGGTKVEIK
notes: also called Ab 65
Question: With B17 as the binder, how does the Kd [3] read?
Answer: The Kd was 0.365 nM.

Question: Does B17 bind [1]?
Answer: Result: no binding

Question: And the Kd [2]?
Answer: The Kd was 0.189 nM.

B18: ADI-14407 (antibody, V domains shown)
VH: QVQLVQSGGGVVQPGRSLRLSCAASGFTFSSYGMHWVRQAPGKGLEWVAVIWFDGNNKEYADSVKGRFAISRDNSKNTLYLQMNSLRAEDTAVYYCARDLIPVTIFGVVNPYSYYGMDVWGQGTTVTVSS
VL: EIVMTQSPSSLSASVGDRVTITCRASQSISTYLNWYQQKPGTAPKLLIYAASSLESGVPSRLSGSGSGTEFILTISSLQREDFATYYCQQSYSTPPTFGQGTKVEIK
notes: also called Ab 73
Question: Which Kd [3] does the source give for B18 here?
Answer: The Kd was 11.4 nM.

Question: And the Kd [1]?
Answer: Its Kd is 0.378 nM.

Question: And the Kd [2]?
Answer: Its Kd is 6.28 nM.

B19: ADI-14411 (antibody, V domains shown)
VH: QVQLVQSGAEVKKPGASVKLSCKASGYTFTRFYIHWVRQAPGQGLEWMGIINPSGGGTSYAQNFQDRVTMTRDTSTSTVYMELSSLRSEDTAVYYCARNGYSTRSLQNNWFDPWGQGTLVTVSS
VL: ETTLTQSPSSLSASVGDRVTITCRASQSIDNYLNWYQQKPGKAPKLLIYEASSLQSGVPSRFSGSGSGTDFTLTISSLQPEDFATYYCQQTYSSLPYTFGQGTKVEIK
notes: also called Ab 77
Question: How did the Kd [3] turn out when B19 was run?
Answer: The Kd was 3.92 nM.

Question: Does B19 bind [1]?
Answer: Result: no binding

Question: What about the Kd [2] of the same binder?
Answer: The Kd was 6.12 nM.

B20: ADI-14397 (antibody, V domains shown)
VH: EVQLVESGGGVVQPGRSLRLSCAASGFTFSSYAMHWVRQAPGKGLEWVAVISYDGSNKYYADSVKGRFTISRDNSKNTLYLQMNSLRAEDTAVYYCARDDTYYYDSNGYSAPFDYWGQGTLVTVSS
VL: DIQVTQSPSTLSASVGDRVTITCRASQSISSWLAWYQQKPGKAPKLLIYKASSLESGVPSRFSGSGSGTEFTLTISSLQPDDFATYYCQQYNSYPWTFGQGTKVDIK
notes: also called Ab 64
Question: What does the source list for B20?
Answer: binding result [1]: no binding; Kd [2]: 28.5 nM
